# Source: patent US20200247894A1 (Regeneron, published 2020)
# T1: human IL-2Rγ endogenously expressed on NK-92 and Jurkat cells (human, UniProt P31785 23-369)
# T1 construct: whole, on cells; on cells it stands with the other receptor subunits of the cell line; also called IL-2Rg; CD132
# T1 sequence (looked up): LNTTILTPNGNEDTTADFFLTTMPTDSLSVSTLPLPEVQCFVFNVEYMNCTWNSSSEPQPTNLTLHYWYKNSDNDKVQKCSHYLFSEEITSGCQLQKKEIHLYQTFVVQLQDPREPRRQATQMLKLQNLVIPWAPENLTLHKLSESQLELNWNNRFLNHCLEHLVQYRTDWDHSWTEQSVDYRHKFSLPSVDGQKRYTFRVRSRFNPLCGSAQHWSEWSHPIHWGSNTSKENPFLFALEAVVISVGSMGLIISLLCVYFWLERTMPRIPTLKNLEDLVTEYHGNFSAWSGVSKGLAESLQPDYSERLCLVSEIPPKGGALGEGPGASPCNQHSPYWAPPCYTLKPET
# T2: mouse IL-2Rγ endogenously expressed on MC/9 cells (mouse, UniProt P34902 23-369)
# T2 construct: whole, on cells
# T2 sequence (looked up): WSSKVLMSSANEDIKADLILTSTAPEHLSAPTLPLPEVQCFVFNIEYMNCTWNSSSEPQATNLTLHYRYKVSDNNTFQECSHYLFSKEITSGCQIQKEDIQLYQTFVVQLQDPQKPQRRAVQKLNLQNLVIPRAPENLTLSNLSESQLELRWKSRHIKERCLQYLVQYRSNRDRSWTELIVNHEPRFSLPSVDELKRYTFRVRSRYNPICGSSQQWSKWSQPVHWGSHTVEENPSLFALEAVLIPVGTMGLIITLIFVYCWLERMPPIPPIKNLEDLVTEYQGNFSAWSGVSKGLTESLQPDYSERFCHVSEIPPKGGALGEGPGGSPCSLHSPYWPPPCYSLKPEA
# Assays:
# [1] = molecular target: T1, human IL-2Rγ endogenously expressed on …; experiment: flow cytometry, 10 ug/ml antibody, Jurkat cells (endogenous human IL-2Rg)
# Method: (§1) For flow cytometry analyses, the cells were pre-incubated with mouse IgG at 100 μg/ml for 15 minutes at room temperature (RT) to block the binding of the antibodies to Fc receptors. […] Cells were washed, fixed using BD CytoFix™ (BD biosciences, #554655) and analyzed on an IQue® (Intellicyt®) Flow Cytometer or Accuri Flow cytometer (BD). […] The results were analyzed using ForeCyt® (IntelliCyt®) software to determine the geometric means of fluorescence (MFI) for viable cells. Binding ratios were calculated by normalizing the MFI of the test sample by the MFI of the unstained sample.
# [2] = molecular target: T1, human IL-2Rγ endogenously expressed on …; experiment: flow cytometry, 10 ug/ml antibody, NK-92 cells (endogenous human IL-2Rg)
# Method: as §1
# [3] = molecular target: T2, mouse IL-2Rγ endogenously expressed on …; experiment: flow cytometry, 10 ug/ml antibody, MC/9 cells (endogenous mouse IL-2Rg)
# Method: as §1
Binder,Binding Ratio (Sample over unstained MFIs) [1],Raw MFI [1],Binding Ratio (Sample over unstained MFIs) [2],Raw MFI [2],Binding Ratio (Sample over unstained MFIs) [3],Raw MFI [3]
"H4H12859P (antibody, human IgG4 S228P, kappa, V domains shown, fully human anti-IL2Rg antibody, human IgG4) VH: QVQLVQSGAEVKKPGASVRVSCKASGYTFTDYDIHWVRQAPGHGLEWMGWINPNSGGTNYAQKFQGRVTMTRDTSISTVYMDLSRLRSDDTAVYYCARADYSSSYYYYGMDVWGQGTTVTVSS VL: not shown",1,89 MFI,1,176 MFI,1,201 MFI
"H4H12871P (antibody, human IgG4 S228P, kappa, V domains shown, fully human anti-IL2Rg antibody, human IgG4; also called REGN9434) VH: QVQLQESGPGLVKPSQTLSLTCTVSGGSITSGGYYWSWIRQYPGQGLEWIGYIYYSGKTYYNPSFTSRITISVDTSKKQFSLKMSSVTAADTAVYYCARAGFTSSNGWFDPWGQGTLVTVSS VL: DIQMTQSPSSLSASVGDRVTITCRASQNIRSYLNWYQQKPGKAPKLLIYSASSLQSGVPSRFSGSGSGTDFTLTISSLQPEDFPTYYCQQTYSSPWTFGPGTKVEIKR",18,1620 MFI,92,13700 MFI,1,184 MFI
"H4H12886P (antibody, human IgG4 S228P, kappa, V domains shown, fully human anti-IL2Rg antibody, human IgG4) VH: EVQLVESGGGLVKPGGSLRLSCAASGFTFSTAWMSWVRQSPGRGLEWVGRMKSKTDGGTTFYAAPVKGRFTISRDDSKNTLYLQMNSLKTEDTAVYYCTTGLVPAFYKYYGVDVWGQGTTVTVSS VL: DIQMTQSPSSLSASVGDRITITCQASQDITNYLNWYQQKPGKAPNLLIYDASNLVTGVPSRFSGSGSGTDFTFTILSLQPEDIATYYCQQYDSLLTFGPGTKVDIKR",6,488 MFI,32,4720 MFI,1,185 MFI

# More lines, now with the values ahead:
Binding Ratio (Sample over unstained MFIs) [1],Raw MFI [1],Binding Ratio (Sample over unstained MFIs) [2],Raw MFI [2],Binding Ratio (Sample over unstained MFIs) [3],Raw MFI [3],Binder
1,99 MFI,2,228 MFI,1,199 MFI,"H4H12858P (antibody, human IgG4 S228P, kappa, V domains shown, fully human anti-IL2Rg antibody, human IgG4; also called REGN9433) VH: EVQLVESGGDLVQPGGSLRLSCTASGFIFRNYAMNWVRQAPGKGLEWLSGILGSNDNTYYVDSVKGRFTISRDNSRNTLYLQMNSLRAEDSAVYYCAKGDAGGFDYWGQGTLVTVSS VL: DVVMTQSPLSLPVILGQPASISCRSSQSLVSSDGNTYLNWFQQRPGQSPRRLIYKVSNRDSGVPDRFSGSGSGTDFTLKISRVEAEDVGAYYCMQGSYWPPTFGQGTKLEIKR"
13,1170 MFI,87,13000 MFI,1,185 MFI,"H4H12863P (antibody, human IgG4 S228P, kappa, V domains shown, fully human anti-IL2Rg antibody, human IgG4) VH: QVQLVESGGGVVQPGRSLRLSCTASGFTFRSYDMYWVRQAPGKGLEWVSVITYDGNNKYYADSVKGRFTISRDNSKNTLFLQMSSLRPEDTAVYYCAKRGLIWVGESFDYWGQGTLVTVSS VL: DIQMTQSPSTLSASVGDRVTITCRASQSINSWLAWYQQKPGKAPNLLIYKASSLESGVPSRFSGSGSGTEFTLTISSLQPDDFATYYCQQYKSYSWTFGQGTKVEIKR"
6,507 MFI,44,6580 MFI,1,202 MFI,"H4H12874P (antibody, human IgG4 S228P, kappa, V domains shown, fully human anti-IL2Rg antibody, human IgG4) VH: QVQLVESGGGVVQPGRSLRLSCAASGFNFRNFGMHWVRQAPGKGLEWVAGILYDGSSKYYADSVKDRFTISRDNSKNTLFLQMNSLRAEDTAMYYCAKEEDTAMVPFDSWGPGTLVTVSS VL: DIQLTQSPSFLSASVGDRVTITCWASQGISSYLAWYQQKPGKAPTLLIYAASTLQSGVPSRFSGSGSGTEFTLTISSLQPEDFASYYCQQLKSYPLTFGGGTKVEIKR"
16,1420 MFI,90,13500 MFI,1,172 MFI,"H4H12884P (antibody, human IgG4 S228P, kappa, V domains shown, fully human anti-IL2Rg antibody, human IgG4) VH: QVQLQESGPGLVKPSQTLSLTCTVSGGSISSGGYYWSWIRQHPGKGLEWIGFIYYSGKTYYNPSLKSRLTISVDTSKSQFSLKLRSVTAADTAVYYCARLGYTNSAGWFDPWGQGTLVTVSS VL: DIQMTQSPSSLSASVGDRVTITCRASQSISSYLNWYQQKPGKAPNLLIYAASSLQSGVPSRFSGSGSGTDFTLTISSLQPEDLATYYCQQSYTTPFTFGPGTKVDIKR"
